Source: the supplement of paper PMC10598134
± gives the standard deviation.

Assay: collision cross section of modified peptide (TIMS, N2, iRT-aligned); higher = larger / more extended gas-phase ion
Procedure, shortened: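 Collision cross section values rest on the Mason-Schamp equation applied to calibrated, run-aligned mobility data from synthetic peptides. Mobility (1/K0) was calibrated with three reference ions and aligned per run to the median iRT peptide deviation, and 1–3 technical replicates of the most abundant feature per charge state were averaged. Data came from a timsTOF Pro/HT in dda-PASEF mode (nitrogen, ~2.4 mbar) after a 120-min nanoflow C18 gradient at 60 °C.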

[1] = charge state: 2, modification: Crotonyl
[2] = charge state: 2, modification: Dimethyl (K)
[3] = charge state: 3, modification: Dimethyl (K)
[4] = charge state: 2, modification: Formyl
[5] = charge state: 2, modification: Glutarylation
[6] = charge state: 3, modification: Glutarylation
[7] = charge state: 2, modification: GlyGly (K)
[8] = charge state: 3, modification: GlyGly (K)
[9] = charge state: 2, modification: Malonyl
[10] = charge state: 2, modification: Methyl (K)
[11] = charge state: 3, modification: Methyl (K)
[12] = charge state: 2, modification: Succinyl
[13] = charge state: 3, modification: Succinyl
[14] = charge state: 2, modification: Trimethyl (K)
[15] = charge state: 3, modification: Trimethyl (K)
[16] = charge state: 2, modification: hydroxyisobutyryl
[17] = charge state: 3, modification: HexNAc (ST)
[18] = charge state: 2, modification: Acetyl (K)
[19] = charge state: 2, modification: Butyryl
[20] = charge state: 2, modification: Nitro (Y)
[21] = charge state: 2, modification: Phospho (Y)

TTGFYSGFSEVAEKR [_TTGFYSGFSEVAEK(Crotonyl)R_]
collision cross section [1]: 441.38 ± 0.77 Å²

TTGFYSGFSEVAEKR [_TTGFYSGFSEVAEK(Dimethyl (K))R_]
collision cross section [2]: 453.39 ± 1.3 Å² | collision cross section [3]: 504.73 ± 0.75 Å²

TTGFYSGFSEVAEKR [_TTGFYSGFSEVAEK(Formyl)R_]
collision cross section [4]: 430.24 ± 0.79 Å²

TTGFYSGFSEVAEKR [_TTGFYSGFSEVAEK(Gluratylation)R_]
collision cross section [5]: 443.45 ± 0.95 Å² | collision cross section [6]: 517.64 Å²

TTGFYSGFSEVAEKR [_TTGFYSGFSEVAEK(GlyGly (K))R_]
collision cross section [7]: 463.26 ± 1.6 Å² | collision cross section [8]: 525.41 ± 1.1 Å²

TTGFYSGFSEVAEKR [_TTGFYSGFSEVAEK(Malonyl)R_]
collision cross section [9]: 440.22 ± 1.2 Å²

TTGFYSGFSEVAEKR [_TTGFYSGFSEVAEK(Methyl (K))R_]
collision cross section [10]: 449.23 ± 2.4 Å² | collision cross section [11]: 510.26 ± 2 Å²

TTGFYSGFSEVAEKR [_TTGFYSGFSEVAEK(Succinyl)R_]
collision cross section [12]: 441.9 ± 0.5 Å² | collision cross section [13]: 512.39 ± 1.6 Å²

TTGFYSGFSEVAEKR [_TTGFYSGFSEVAEK(Trimethyl (K))R_]
collision cross section [14]: 459.26 Å² | collision cross section [15]: 508.85 ± 1.6 Å²

TTGFYSGFSEVAEKR [_TTGFYSGFSEVAEK(hydroxyisobutyryl)R_]
collision cross section [16]: 444.06 ± 0.8 Å² | collision cross section (charge state: 3, modification: hydroxyisobutyryl): 515.51 ± 0.49 Å²

TTLTSDESVKDHTTAGR [_TTLTS(HexNAc (ST))DESVKDHTTAGR_]
collision cross section [17]: 545.39 ± 0.18 Å²

TTSYPTPRPYPKPAPSSGK [_TTSYPTPRPYPKPAPS(HexNAc (ST))SGK_]
collision cross section [17]: 526.67 Å²

TVQGPPGEPGR [_TVQGPPGEP(Hydroxyproline)GR_]
collision cross section (charge state: 2, modification: Hydroxyproline): 345.67 ± 0.89 Å²

TVSKVDDFLANEAK [_TVSK(Acetyl (K))VDDFLANEAK_]
collision cross section [18]: 417.71 ± 1.3 Å²

TVSKVDDFLANEAK [_TVSK(Biotin)VDDFLANEAK_]
collision cross section (charge state: 2, modification: Biotin): 445.28 ± 0.73 Å²

TVSKVDDFLANEAK [_TVSK(Butyryl)VDDFLANEAK_]
collision cross section [19]: 424.02 ± 0.86 Å²

TVSKVDDFLANEAK [_TVSK(Crotonyl)VDDFLANEAK_]
collision cross section [1]: 421.27 ± 0.55 Å²

TVSKVDDFLANEAK [_TVSK(Dimethyl (K))VDDFLANEAK_]
collision cross section [2]: 415.63 Å² | collision cross section [3]: 482.42 ± 2.9 Å²

TVSKVDDFLANEAK [_TVSK(Formyl)VDDFLANEAK_]
collision cross section [4]: 415.84 ± 0.18 Å²

TVSKVDDFLANEAK [_TVSK(Gluratylation)VDDFLANEAK_]
collision cross section [5]: 427.28 ± 0.47 Å²

TVSKVDDFLANEAK [_TVSK(GlyGly (K))VDDFLANEAK_]
collision cross section [7]: 429.63 ± 1.4 Å² | collision cross section [8]: 494.01 ± 1.9 Å²

TVSKVDDFLANEAK [_TVSK(Malonyl)VDDFLANEAK_]
collision cross section [9]: 420.45 ± 0.57 Å²

TVSKVDDFLANEAK [_TVSK(Methyl (K))VDDFLANEAK_]
collision cross section [10]: 413.26 ± 1.6 Å² | collision cross section [11]: 471.08 ± 3.6 Å²

TVSKVDDFLANEAK [_TVSK(Succinyl)VDDFLANEAK_]
collision cross section [12]: 425.01 ± 0.52 Å²

TVSKVDDFLANEAK [_TVSK(Trimethyl (K))VDDFLANEAK_]
collision cross section [14]: 424.19 ± 1.1 Å² | collision cross section [15]: 482.88 ± 1.6 Å²

TVSKVDDFLANEAK [_TVSK(hydroxyisobutyryl)VDDFLANEAK_]
collision cross section [16]: 426.08 ± 0.56 Å²

TVTNAVVTVPAYFNDSQR [_TVTNAVVTVPAY(Nitro (Y))FNDSQR_]
collision cross section [20]: 470.26 ± 1.5 Å² | collision cross section (charge state: 3, modification: Nitro (Y)): 559.7 ± 0.32 Å²

TYVQDILR [_TY(Nitro (Y))VQDILR_]
collision cross section [20]: 350.96 ± 0.47 Å²

TYVQDILR [_TY(Phospho (Y))VQDILR_]
collision cross section [21]: 359.66 ± 0.65 Å²

VDATADYICK [_VDATADY(Nitro (Y))ICK_]
collision cross section [20]: 358.43 ± 0.17 Å²

VDATADYICK [_VDATADY(Phospho (Y))ICK_]
collision cross section [21]: 366.93 ± 0.064 Å²

VDGDTQTTVEK [_VDGDTQTT(HexNAc (ST))VEK_]
collision cross section (charge state: 2, modification: HexNAc (ST)): 383.53 ± 0.58 Å²

VDIDAPDVSIEGPDAKLK [_VDIDAPDVSIEGPDAK(Acetyl (K))LK_]
collision cross section [18]: 462.55 ± 2.9 Å²

VDIDAPDVSIEGPDAKLK [_VDIDAPDVSIEGPDAK(Butyryl)LK_]
collision cross section [19]: 472.57 ± 0.49 Å²

VDIDAPDVSIEGPDAKLK [_VDIDAPDVSIEGPDAK(Crotonyl)LK_]
collision cross section [1]: 471.19 ± 1.1 Å²

VDIDAPDVSIEGPDAKLK [_VDIDAPDVSIEGPDAK(Dimethyl (K))LK_]
collision cross section [2]: 457.63 ± 1.8 Å² | collision cross section [3]: 550.49 ± 0.63 Å²

VDIDAPDVSIEGPDAKLK [_VDIDAPDVSIEGPDAK(Formyl)LK_]
collision cross section [4]: 461.12 Å²

VDIDAPDVSIEGPDAKLK [_VDIDAPDVSIEGPDAK(Gluratylation)LK_]
collision cross section [5]: 469.43 ± 1.5 Å²

VDIDAPDVSIEGPDAKLK [_VDIDAPDVSIEGPDAK(GlyGly (K))LK_]
collision cross section [7]: 470.72 ± 1.4 Å² | collision cross section [8]: 499.87 ± 1.9 Å²

VDIDAPDVSIEGPDAKLK [_VDIDAPDVSIEGPDAK(Malonyl)LK_]
collision cross section [9]: 466.92 ± 1.2 Å²

VDIDAPDVSIEGPDAKLK [_VDIDAPDVSIEGPDAK(Methyl (K))LK_]
collision cross section [10]: 453.93 ± 0.34 Å² | collision cross section [11]: 544.25 ± 0.42 Å²

VDIDAPDVSIEGPDAKLK [_VDIDAPDVSIEGPDAK(Succinyl)LK_]
collision cross section [12]: 469.67 ± 0.79 Å²

VDIDAPDVSIEGPDAKLK [_VDIDAPDVSIEGPDAK(Trimethyl (K))LK_]
collision cross section [14]: 465.65 ± 1.2 Å² | collision cross section [15]: 534.07 ± 1.8 Å²

VDIDAPDVSIEGPDAKLK [_VDIDAPDVSIEGPDAK(hydroxyisobutyryl)LK_]
collision cross section [16]: 475 ± 0.81 Å²

VDIDVPDVNIEGPDAKLK [_VDIDVPDVNIEGPDAK(Acetyl (K))LK_]
collision cross section [18]: 477.46 ± 4.2 Å²

VDIDVPDVNIEGPDAKLK [_VDIDVPDVNIEGPDAK(Butyryl)LK_]
collision cross section [19]: 488.42 ± 0.47 Å²

VDIDVPDVNIEGPDAKLK [_VDIDVPDVNIEGPDAK(Crotonyl)LK_]
collision cross section [1]: 487.32 Å²

VDIDVPDVNIEGPDAKLK [_VDIDVPDVNIEGPDAK(Dimethyl (K))LK_]
collision cross section [3]: 550.04 ± 1.1 Å²

VDIDVPDVNIEGPDAKLK [_VDIDVPDVNIEGPDAK(Gluratylation)LK_]
collision cross section [5]: 479.85 ± 0.49 Å² | collision cross section [6]: 509.66 ± 1.3 Å²

VDIDVPDVNIEGPDAKLK [_VDIDVPDVNIEGPDAK(GlyGly (K))LK_]
collision cross section [7]: 469.92 ± 1.9 Å² | collision cross section [8]: 504.15 ± 0.79 Å²

VDIDVPDVNIEGPDAKLK [_VDIDVPDVNIEGPDAK(Malonyl)LK_]
collision cross section [9]: 474.57 Å²

VDIDVPDVNIEGPDAKLK [_VDIDVPDVNIEGPDAK(Methyl (K))LK_]
collision cross section [10]: 457.57 ± 0.42 Å² | collision cross section [11]: 489.73 ± 3.2 Å²

VDIDVPDVNIEGPDAKLK [_VDIDVPDVNIEGPDAK(Succinyl)LK_]
collision cross section [12]: 479.51 ± 1 Å² | collision cross section [13]: 508.07 ± 2 Å²

VDIDVPDVNIEGPDAKLK [_VDIDVPDVNIEGPDAK(Trimethyl (K))LK_]
collision cross section [14]: 470.5 Å² | collision cross section [15]: 538.87 ± 1.8 Å²

VDIDVPDVNIEGPDAKLK [_VDIDVPDVNIEGPDAK(hydroxyisobutyryl)LK_]
collision cross section [16]: 489.94 Å²

VDVEVPDVSLEGPEGKLK [_VDVEVPDVSLEGPEGK(Acetyl (K))LK_]
collision cross section [18]: 461.92 ± 2.1 Å² | collision cross section (charge state: 3, modification: Acetyl (K)): 555.98 Å²

VDVEVPDVSLEGPEGKLK [_VDVEVPDVSLEGPEGK(Butyryl)LK_]
collision cross section [19]: 469.33 ± 0.49 Å²

VDVEVPDVSLEGPEGKLK [_VDVEVPDVSLEGPEGK(Crotonyl)LK_]
collision cross section [1]: 469.01 ± 1.1 Å²

VDVEVPDVSLEGPEGKLK [_VDVEVPDVSLEGPEGK(Dimethyl (K))LK_]
collision cross section [2]: 459.72 ± 1.8 Å² | collision cross section [3]: 548.43 ± 0.78 Å²

VDVEVPDVSLEGPEGKLK [_VDVEVPDVSLEGPEGK(Formyl)LK_]
collision cross section [4]: 460.51 ± 1.4 Å²

VDVEVPDVSLEGPEGKLK [_VDVEVPDVSLEGPEGK(Gluratylation)LK_]
collision cross section [5]: 465.13 ± 4.5 Å² | collision cross section [6]: 502.24 Å²

VDVEVPDVSLEGPEGKLK [_VDVEVPDVSLEGPEGK(GlyGly (K))LK_]
collision cross section [7]: 462.5 ± 0.94 Å² | collision cross section [8]: 497.08 ± 1.1 Å²

VDVEVPDVSLEGPEGKLK [_VDVEVPDVSLEGPEGK(Malonyl)LK_]
collision cross section [9]: 466.73 ± 0.63 Å² | collision cross section (charge state: 3, modification: Malonyl): 496.84 Å²

VDVEVPDVSLEGPEGKLK [_VDVEVPDVSLEGPEGK(Methyl (K))LK_]
collision cross section [10]: 462.48 ± 7.8 Å² | collision cross section [11]: 551.69 ± 1.3 Å²

VDVEVPDVSLEGPEGKLK [_VDVEVPDVSLEGPEGK(Succinyl)LK_]
collision cross section [12]: 456.12 ± 0.34 Å² | collision cross section [13]: 501.13 ± 1.5 Å²

VDVEVPDVSLEGPEGKLK [_VDVEVPDVSLEGPEGK(Trimethyl (K))LK_]
collision cross section [14]: 461.69 ± 0.55 Å² | collision cross section [15]: 507.27 ± 0.86 Å²
